Results published in the supplement of paper PMC5998384.

Tests used:
HeLa Kyoto [1] = test: solubility change mitosis vs G1/S (difference of NP-40 vs SDS log2 ratios) (log2 ratio difference); higher = more soluble in mitosis
HeLa Kyoto [2] = test: solubility in G1/S (NP-40 vs SDS abundance) (log2 ratio); higher = more soluble; details: cell cycle stage: G1/S
HeLa Kyoto [3] = test: melting temperature (median over replicates), in situ; higher = more thermally stable
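For melting temperature (median over replicates), in situ in this document: HeLa Kyoto cells synchronized by double thymidine or nocodazole block, proteins quantified by TMT10plex mass spectrometry, three independent biological replicates.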
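For solubility change mitosis vs G1/S (difference of NP-40 vs SDS log2 ratios) in this document: synchronized HeLa Kyoto cells (double thymidine block for G1/S, nocodazole release for mitosis), protein amounts in NP-40 versus SDS lysates quantified by mass spectrometry, three biological replicates.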
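For solubility in G1/S (NP-40 vs SDS abundance) in this document: HeLa Kyoto cells arrested at G1/S by double thymidine block, proteins quantified by TMT10plex mass spectrometry in mild NP-40 versus SDS extracts, three biological replicates.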

Substance | solubility change mitosis (log2) (HeLa Kyoto [1]) | solubility in G1/S (log2) (HeLa Kyoto [2]) | melting temperature (HeLa Kyoto [3]; cell cycle stage: G1/S) | melting temperature (HeLa Kyoto [3]; cell cycle stage: mitosis)
MARDLIGPALPPGFKARGTAEDEERDPSPVAGPALPPNYKSSSSDSSDSDEDSSSLYEEGNQESEEDDSGPTARKQRKNQDDDDDDDDGFFGPALPPGFKKQDDSPPRPIIGPALPPGFIKSTQKSDKGRDDPGQQETDSSEDEDIIGPMPAKGPVNYNVTTEFEKRAQRMKEKLTKGDDDSSKPIVRESWMTELPPEMKDFGLGPRTFKRRADDTSGDRSIWTDTPADRERKAKETQEARKSSSKKDEEHILSGRDKRLAEQVSSYNESKRSESLMDIHHKKLKSKAAEDKNKPQERIPFDRDKDLKVNRFDEAQKKALIKKSRELNTRFSHGKGNMFL [GPALPP1] | 0.245 | 0.0784 | 55.1 °C | 56.1 °C
MAGSPELVVLDPPWDKELAAGTESQALVSATPREDFRVRCTSKRAVTEMLQLCGRFVQKLGDALPEEIREPALRDAQWTFESAVQENISINGQAWQEASDNCFMDSDIKVLEDQFDEIIVDIATKRKQYPRKILECVIKTIKAKQEILKQYHPVVHPLDLKYDPDPAPHMENLKCRGETVAKEISEAMKSLPALIEQGEGFSQVLRMQPVIHLQRIHQEVFSSCHRKPDAKPENFITQIETTPTETASRKTSDMVLKRKQTKDCPQRKWYPLRPKKINLDT [NSL1] | -0.0661 | 0.0226 | 50.2 °C | 49.9 °C
MEEEGVKEAGEKPRGAQMVDKAGWIKKSSGGLLGFWKDRYLLLCQAQLLVYENEDDQKCVETVELGSYEKCQDLRALLKRKHRFILLRSPGNKVSDIKFQAPTGEEKESWIKALNEGINRGKNKAFDEVKVDKSCALEHVTRDRVRGGQRRRPPTRVHLKEVASAASDGLLRLDLDVPDSGPPVFAPSNHVSEAQPRETPRPLMPPTKPFLAPETTSPGDRVETPVGERAPTPVSASSEVSPESQEDSETPAEEDSGSEQPPNSVLPDKLKVSWENPSPQEAPAAESAEPSQAPCSETSEAAPREGGKPPTPPPKILSEKLKASMGEMQASGPPAPGTVQVSVNGMDDSPEPAKPSQAEGTPGTPPKDATTSTALPPWDLPPQFHPRCSSLGDLLGEGPRHPLQPRERLYRAQLEVKVASEQTEKLLNKVLGSEPAPVSAETLLSQAVEQLRQATQVLQEMRDLGELSQEAPGLREKRKELVTLYRRSAP [PLEKHO2] | 0.0528 | 0.188 | 53.2 °C | 51.9 °C
BCL9L | 0.083 | 0.294 | 55.7 °C | 54.4 °C
MSEAYFRVESGALGPEENFLSLDDILMSHEKLPVRTETAMPRLGAFFLERSAGAETDNAVPQGSKLELPLWLAKGLFDNKRRILSVELPKIYQEGWRTVFSADPNVVDLHKMGPHFYGFGSQLLHFDSPENADISQSLLQTFIGRFRRIMDSSQNAYNEDTSALVARLDEMERGLFQTGQKGLNDFQCWEKGQASQITASNLVQNYKKRKFTDMED [GINS3] | 0.225 | 0.471 | 51.7 °C | 51.7 °C
MFAKLKKKIAEETAVAQRPGGATRIPRSVSKESVASMGADSGDDFASDGSSSREDLSSQLLRRNEQIRKLEARLSDYAEQVRNLQKIKEKLEIALEKHQDSSMRKFQEQNETFQANRAKMAEGLALALARKDQEWSEKMDQLEKEKNILTAQLQEMKNQSMNLFQRRDEMDELEGFQQQELSKIKHMLLKKEESLGKMEQELEARTRELSRTQEELMNSNQMSSDLSQKLEELQRHYSTLEEQRDHVIASKTGAESKITALEQKEQELQALIQQLSIDLQKVTAETQEKEDVITHLQEKVASLEKRLEQNLSGEEHLQELLKEKTLAEQNLEDTRQQLLAARSSQAKAINTLETRVRELEQTLQASEEQLQQSKGIVAAQETQIQELAAANQESSHVQQQALALEQQFLERTQALEAQIVALERTRAADQTTAEQGMRQLEQENAALKECRNEYERSLQNHQFELKKLKEEWSQREIVSVAMAQALEEVRKQREEFQQQAANLTAIIDEKEQNLREKTEVLLQKEQEILQLERGHNSALLQIHQLQAELEALRTLKAEEAAVVAEQEDLLRLRGPLQAEALSVNESHVTSRAMQDPVFQLPTAGRTPNGEVGAMDLTQLQKEKQDLEQQLLEKNKTIKQMQQRMLELRKTLQKELKIRPDNELFEVREKPGPEMANMAPSVTNNTDLTDAREINFEYLKHVVLKFMSCRESEAFHLIKAVSVLLNFSQEEENMLKETLEYKMSWFGSKPAPKGSIRPSISNPRIPWS [GOLGA1] | 0.0219 | 0.556 | 49.5 °C | –
MALLAEHLLKPLPADKQIETGPFLEAVSHLPPFFDCLGSPVFTPIKADISGNITKIKAVYDTNPAKFRTLQNILEVEKEMYGAEWPKVGATLALMWLKRGLRFIQVFLQSICDGERDENHPNLIRVNATKAYEMALKKYHGWIVQKIFQAALYAAPYKSDFLKALSKGQNVTEEECLEKIRLFLVNYTATIDVIYEMYTQMNAELNYKV [GLTP] | -0.117 | -0.139 | – | 53.3 °C
MAQEFVNCKIQPGKVVVFIKPTCPYCRRAQEILSQLPIKQGLLEFVDITATNHTNEIQDYLQQLTGARTVPRVFIGKDCIGGCSDLVSLQQSGELLTRLKQIGALQ [GLRX] | 0.0467 | 0.253 | 54.7 °C | 53.4 °C
MRASLLLSVLRPAGPVAVGISLGFTLSLLSVTWVEEPCGPGPPQPGDSELPPRGNTNAARRPNSVQPGAEREKPGAGEGAGENWEPRVLPYHPAQPGQAAKKAVRTRYISTELGIRQRLLVAVLTSQTTLPTLGVAVNRTLGHRLERVVFLTGARGRRAPPGMAVVTLGEERPIGHLHLALRHLLEQHGDDFDWFFLVPDTTYTEAHGLARLTGHLSLASAAHLYLGRPQDFIGGEPTPGRYCHGGFGVLLSRMLLQQLRPHLEGCRNDIVSARPDEWLGRCILDATGVGCTGDHEGVHYSHLELSPGEPVQEGDPHFRSALTAHPVRDPVHMYQLHKAFARAELERTYQEIQELQWEIQNTSHLAVDGDQAAAWPVGIPAPSRPASRFEVLRWDYFTEQHAFSCADGSPRCPLRGADRADVADVLGTALEELNRRYHPALRLQKQQLVNGYRRFDPARGMEYTLDLQLEALTPQGGRRPLTRRVQLLRPLSRVEILPVPYVTEASRLTVLLPLAAAERDLAPGFLEAFATAALEPGDAAAALTLLLLYEPRQAQRVAHADVFAPVKAHVAELERRFPGARVPWLSVQTAAPSPLRLMDLLSKKHPLDTLFLLAGPDTVLTPDFLNRCRMHAISGWQAFFPMHFQAFHPAVAPPQGPGPPELGRDTGRFDRQAASEACFYNSDYVAARGRLAAASEQEEELLESLDVYELFLHFSSLHVLRAVEPALLQRYRAQTCSARLSEDLYHRCLQSVLEGLGSRTQLAMLLFEQEQGNST [CHPF] | 0.15 | -0.013 | 53.4 °C | 52 °C
MAFTNYSSLNRAQLTFEYLHTNSTTHEFLFGALAELVDNARDADATRIDIYAERREDLRGGFMLCFLDDGAGMDPSDAASVIQFGKSAKRTPESTQIGQYGNGLKSGSMRIGKDFILFTKKEDTMTCLFLSRTFHEEEGIDEVIVPLPTWNARTREPVTDNVEKFAIETELIYKYSPFRTEEEVMTQFMKIPGDSGTLVIIFNLKLMDNGEPELDIISNPRDIQMAETSPEGTKPERRSFRAYAAVLYIDPRMRIFIHGHKVQTKRLSCCLYKPRMYKYTSSRFKTRAEQEVKKAEHVARIAEEKAREAESKARTLEVRLGGDLTRDSRVMLRQVQNRAITLRREADVKKRIKEAKQRALKEPKELNFVFGVNIEHRDLDGMFIYNCSRLIKMYEKVGPQLEGGMACGGVVGVVDVPYLVLEPTHNKQDFADAKEYRHLLRAMGEHLAQYWKDIAIAQRGIIKFWDEFGYLSANWNQPPSSELRYKRRRAMEIPTTIQCDLCLKWRTLPFQLSSVEKDYPDTWVCSMNPDPEQDRCEASEQKQKVPLGTFRKDMKTQEEKQKQLTEKIRQQQEKLEALQKTTPIRSQADLKKLPLEVTTRPSTEEPVRRPQRPRSPPLPAVIRNAPSRPPSLPTPRPASQPRKAPVISSTPKLPALAAREEASTSRLLQPPEAPRKPANTLVKTASRPAPLVQQLSPSLLPNSKSPREVPSPKVIKTPVVKKTESPIKLSPATPSRKRSVAVSDEEEVEEEAERRKERCKRGRFVVKEEKKDSNELSDSAGEEDSADLKRAQKDKGLHVEVRVNREWYTGRVTAVEVGKHVVRWKVKFDYVPTDTTPRDRWVEKGSEDVRLMKPPSPEHQSLDTQQEGGEEEVGPVAQQAIAVAEPSTSECLRIEPDTTALSTNHETIDLLVQILRNCLRYFLPPSFPISKKQLSAMNSDELISFPLKEYFKQYEVGLQNLCNSYQSRADSRAKASEESLRTSERKLRETEEKLQKLRTNIVALLQKVQEDIDINTDDELDAYIEDLITKGD [MORC2] | -0.0838 | -0.0374 | 48.1 °C | 48.6 °C
MAHRLQIRLLTWDVKDTLLRLRHPLGEAYATKARAHGLEVEPSALEQGFRQAYRAQSHSFPNYGLSHGLTSRQWWLDVVLQTFHLAGVQDAQAVAPIAEQLYKDFSHPCTWQVLDGAEDTLRECRTRGLRLAVISNFDRRLEGILGGLGLREHFDFVLTSEAAGWPKPDPRIFQEALRLAHMEPVVAAHVGDNYLCDYQGPRAVGMHSFLVVGPQALDPVVRDSVPKEHILPSLAHLLPALDCLEGSTPGL [HDHD3] | 0.0289 | 0.0599 | 53.9 °C | 54.8 °C
MGDEKDSWKVKTLDEILQEKKRRKEQEEKAEIKRLKNSDDRDSKRDSLEEGELRDHRMEITIRNSPYRREDSMEDRGEEDDSLAIKPPQQMSRKEKAHHRKDEKRKEKRRHRSHSAEGGKHARVKEKEREHERRKRHREEQDKARREWERQKRREMAREHSRRERDRLEQLERKRERERKMREQQKEQREQKERERRAEERRKEREARREVSAHHRTMREDYSDKVKASHWSRSPPRPPRERFELGDGRKPGEARPAPAQKPAQLKEEKMEERDLLSDLQDISDSERKTSSAESSSAESGSGSEEEEEEEEEEEEEGSTSEESEEEEEEEEEEEEETGSNSEEASEQSAEEVSEEEMSEDEERENENHLLVVPESRFDRDSGESEEAEEEVGEGTPQSSALTEGDYVPDSPALSPIELKQELPKYLPALQGCRSVEEFQCLNRIEEGTYGVVYRAKDKKTDEIVALKRLKMEKEKEGFPITSLREINTILKAQHPNIVTVREIVVGSNMDKIYIVMNYVEHDLKSLMETMKQPFLPGEVKTLMIQLLRGVKHLHDNWILHRDLKTSNLLLSHAGILKVGDFGLAREYGSPLKAYTPVVVTLWYRAPELLLGAKEYSTAVDMWSVGCIFGELLTQKPLFPGKSEIDQINKVFKDLGTPSEKIWPGYSELPAVKKMTFSEHPYNNLRKRFGALLSDQGFDLMNKFLTYFPGRRISAEDGLKHEYFRETPLPIDPSMFPTWPAKSEQQRVKRGTSPRPPEGGLGYSQLGDDDLKETGFHLTTTNQGASAAGPGFSLKF [CDC2L1] | 0.114 | -0.672 | 46.5 °C | 50.3 °C
